Results from publication PMC8277531 (Cell, 2021).

Molecular target: T1, chicken Scap-3xFLAG (pEZT-cScap-3xFLAG WT) expressed in HEK 293T cells (Gallus gallus)
T1 chain: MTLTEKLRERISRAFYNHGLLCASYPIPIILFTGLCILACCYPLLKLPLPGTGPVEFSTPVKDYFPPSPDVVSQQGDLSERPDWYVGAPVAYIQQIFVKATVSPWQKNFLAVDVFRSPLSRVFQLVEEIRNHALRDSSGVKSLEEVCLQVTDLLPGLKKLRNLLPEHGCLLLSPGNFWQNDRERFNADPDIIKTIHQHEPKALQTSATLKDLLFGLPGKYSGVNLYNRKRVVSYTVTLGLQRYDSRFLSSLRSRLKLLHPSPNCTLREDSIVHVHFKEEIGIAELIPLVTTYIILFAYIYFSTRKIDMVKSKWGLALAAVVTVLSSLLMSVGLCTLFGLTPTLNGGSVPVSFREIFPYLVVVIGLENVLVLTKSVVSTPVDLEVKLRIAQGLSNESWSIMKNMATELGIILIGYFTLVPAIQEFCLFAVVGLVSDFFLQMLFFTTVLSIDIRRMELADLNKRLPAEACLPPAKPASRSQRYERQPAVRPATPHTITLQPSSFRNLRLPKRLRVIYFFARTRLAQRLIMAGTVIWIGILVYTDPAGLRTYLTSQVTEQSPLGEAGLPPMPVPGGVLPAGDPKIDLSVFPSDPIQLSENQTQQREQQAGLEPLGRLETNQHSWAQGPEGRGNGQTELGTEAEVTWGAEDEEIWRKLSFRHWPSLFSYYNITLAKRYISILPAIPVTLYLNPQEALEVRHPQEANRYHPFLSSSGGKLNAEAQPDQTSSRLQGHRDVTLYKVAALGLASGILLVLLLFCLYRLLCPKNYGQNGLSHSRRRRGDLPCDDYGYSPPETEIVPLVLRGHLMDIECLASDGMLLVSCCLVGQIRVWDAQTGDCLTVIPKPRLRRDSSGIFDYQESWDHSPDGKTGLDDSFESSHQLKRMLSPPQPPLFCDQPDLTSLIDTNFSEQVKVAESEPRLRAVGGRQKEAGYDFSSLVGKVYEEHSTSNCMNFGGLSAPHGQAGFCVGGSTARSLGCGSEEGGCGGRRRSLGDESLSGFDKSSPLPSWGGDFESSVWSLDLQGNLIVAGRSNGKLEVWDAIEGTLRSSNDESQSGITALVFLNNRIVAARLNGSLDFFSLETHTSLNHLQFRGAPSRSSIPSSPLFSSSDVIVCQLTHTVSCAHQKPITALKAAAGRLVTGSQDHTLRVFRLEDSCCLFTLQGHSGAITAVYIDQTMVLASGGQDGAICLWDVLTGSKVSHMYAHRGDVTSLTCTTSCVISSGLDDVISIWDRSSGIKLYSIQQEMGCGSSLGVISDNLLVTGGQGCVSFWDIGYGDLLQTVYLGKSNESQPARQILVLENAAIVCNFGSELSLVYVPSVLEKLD
Experiment: pull-down

- binding result: binds
B1: Fab fragment derived from mouse monoclonal IgG 4G10 (Fab, V domains shown)
VH: EVQLQQSGAELVRPGASVKLSCTASGFKIKDDYIHWVKQRPEQGLEWIGRIDPANGHTRYAPKFQDKATITADTSSNTAYLQLSSLTSEDTAVYYCTRYNDYDAFYFDYWGQGTTLTVSS
VL: DIQMTQTTSSLSASLGDRVTISCRASQDIRNYLNWYQQKPDGTVKLLIYYTSRLHSGVPSRFSGSGSGTDYSLTISNLEQEDIATYFCQQTNTLPWTFGGGTKVEIK
